According to patent publication US20060115482A1, “Modifications of histone proteins as indicators of cell proliferation and differentiation” (The Regents of the University of California, priority 2004, published 2006):

Columns and labels:
[1] = biological target: recombinant histone H2B (unphosphorylated) (Drosophila) (UniProt P02283); conditions: scale: % of the activity determined for TFIID, TAF1 and CTK
[2] = biological target: recombinant histone H2B (unphosphorylated) (Drosophila) (UniProt P02283)
[3] = biological target: native nucleosomes purified from 0-6 h Drosophila embryos (H2B in nucleosomes) (Drosophila) (UniProt P02283)

Substance | kinase activity (radiolabeled H2B cut from the gel, scintillation counting) [1] | turnover value for phosphorylation of H2B-S33 (in vitro kinase assay, scintillation counting) [2] | turnover value for phosphorylation of H2B-S33 (in vitro kinase assay, scintillation counting) [3]
CTKΔ1600 (CTK polypeptide lacking the S/T-kinase motif) (from UniProt P51123) (enzyme) | < 0.1 |  | 
recombinant TAF1 (Flag(M2)-epitope tagged, immunopurified) (from UniProt P51123) (enzyme) |  | 2.5 s⁻¹ | 2.5 s⁻¹
CTKΔATP (CTK polypeptide lacking the ATP binding motifs) (from UniProt P51123) (enzyme) | < 0.1 |  | 

Continued, values first:

kinase activity (radiolabeled H2B cut from the gel, scintillation counting) [1] | turnover value for phosphorylation of H2B-S33 (in vitro kinase assay, scintillation counting) [2] | turnover value for phosphorylation of H2B-S33 (in vitro kinase assay, scintillation counting) [3] | Substance
< 0.1 |  |  | CTK(D1538A) (from UniProt P51123) (enzyme)
 | 2.6 s⁻¹ | 3.3 s⁻¹ | TFIID (endogenous Drosophila melanogaster TFIID, immunopurified) (from UniProt P51123) (enzyme)
 | 4.4 s⁻¹ | 2.6 s⁻¹ | TAF1 COOH-terminal kinase domain (CTK; amino acids 1496-2132) (from UniProt P51123) (enzyme)
